The results in this text go back to patent publication US10472401B2, “Peptides and combination of peptides for use in immunotherapy against ovarian cancer and other cancers” (immatics biotechnologies GmbH, priority 2015, dated 2019).

Assay [1] deals with HLA-A*02:01 (Homo sapiens, UniProt P04439, D140Y/D185E/D98H/E176V/E277Q/G131W/G231S/I119V/I121R/I166T/I218V/L300P/L318F/N151K/N90K/P208A/P217A/Q86G/Q94H/R138H/R169H/T345S). The assay can be described thus: MHC binding assay (UV-ligand exchange, ELISA of stabilized MHC complexes). To be noted: MHC class I binding score; binding to HLA-A*02:01 ranged by peptide exchange yield (UV-ligand exchange, ELISA). In outline: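 Binding scored as exchange yield, detected via β2m of stabilized complexes in an HRP/TMB ELISA read at 450 nm after streptavidin capture of 100-fold diluted monomers for 1 h at 37 °C. Complexes came from UV irradiation cleaving a photolabile peptide, exchanged for the candidate.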

The test system of assay [2] is CD8+ T cells. Briefly: In vitro immunogenicity: priming of CD8+ T cells with aAPCs loaded with peptide/MHC and anti-CD28, multimer staining. The class given is cell-based, human. The note with it: for Wells positive [%]: HLA-A*02 restricted peptides, percentage of positive wells (among evaluable); for wells: positive wells. An excerpt: In order to obtain information regarding the immunogenicity of the TUMAPs of the present invention, the inventors performed investigations using an in vitro T-cell priming assay based on repeated stimulations of CD8+ T cells with artificial antigen presenting cells (aAPCs) loaded with peptide/MHC complexes and anti-CD28 antibody.
In order to perform in vitro stimulations by artificial antigen presenting cells loaded with peptide-MHC complex (pMHC) and anti-CD28 antibody, the inventors first isolated CD8+ T cells from fresh HLA-A*02 leukopheresis products via positive selection using CD8 microbeads (Miltenyi Biotec, Bergisch-Gladbach, Germany) of healthy donors obtained from the University clinics Mannheim, Germany, after informed consent.
PBMCs and isolated CD8+ lymphocytes were incubated in T-cell medium (TCM) until use consisting of RPMI-Glutamax (Invitrogen, Karlsruhe, Germany) supplemented with 10% heat inactivated human AB serum (PAN-Biotech, Aidenbach, Germany), 100 U/ml Penicillin/100 μg/ml Streptomycin (Cambrex, Cologne, Germany), 1 mM sodium pyruvate (CC Pro, Oberdorla, Germany), 20 μg/ml Gentamycin (Cambrex). 2.5 ng/ml IL-7 (PromoCell, Heidelberg, Germany) and 10 U/ml IL-2 (Novartis Pharma, Nürnberg, Germany) were also added to the TCM at this step.
Generation of pMHC/anti-CD28 coated beads, T-cell stimulations and readout was performed in a highly defined in vitro system using four different pMHC molecules per stimulation condition and 8 different pMHC molecules per readout condition.
The purified co-stimulatory mouse IgG2a anti human CD28 Ab 9.3 (Jung et al., 1987) was chemically biotinylated using Sulfo-N-hydroxysuccinimidobiotin as recommended by the manufacturer (Perbio, Bonn, Germany). Beads used were 5.6 μm diameter streptavidin coated polystyrene particles (Bangs Laboratories, Illinois, USA).
pMHC used for positive and negative control stimulations were A*0201/MLA-001 (peptide […] (SEQ ID NO. 664) from modified Melan-A/MART-1) and A*0201/DDX5-001 ([…] from DDX5, SEQ ID NO. 665), respectively.
800.000 beads/200 μl were coated in 96-well plates in the presence of 4×12.5 ng different biotin-pMHC, washed and 600 ng biotin anti-CD28 were added subsequently in a volume of 200 μl. Stimulations were initiated in 96-well plates by co-incubating […] CD8+ T cells with 2×10^5 washed coated beads in 200 μl TCM supplemented with 5 ng/ml IL-12 (PromoCell) for 3 days at 37° C. Half of the medium was then exchanged by fresh TCM supplemented with 80 U/ml IL-2 and incubating was continued for 4 days at 37° C. This stimulation cycle was performed for a total of three times. For the pMHC multimer readout using 8 different pMHC molecules per condition, a two-dimensional combinatorial coding approach was used as previously described (Andersen et al., 2012) with minor modifications encompassing coupling to 5 different fluorochromes. Finally, multimeric analyses were performed by staining the cells with Live/dead near IR dye (Invitrogen, Karlsruhe, Germany), CD8-FITC antibody clone SK1 (BD, Heidelberg, Germany) and fluorescent pMHC multimers. For analysis, a BD LSRII SORP cytometer equipped with appropriate lasers and filters was used. Peptide specific cells were calculated as percentage of total CD8+ cells. Evaluation of multimeric analysis was done using the FlowJo software (Tree Star, Oregon, USA). In vitro priming of specific multimer+ CD8+ lymphocytes was detected by comparing to negative control stimulations.
Exemplary flow cytometry results after TUMAP-specific multimer staining for two peptides of the invention are shown in FIG. 3 together with corresponding negative controls.

On to “38 (FLLEDDIHVS; listed as Homo sapiens) [compound 38]”, for which, in assay [1], the Peptide exchange entry was “″+++″ (≥50% = +++)”. In assay [2], the “Wells positive [%]” value was “″+″ (<20% = +)”.
For “247 (VLLPNDLLEKV; listed as Homo sapiens) [compound 247]” the same measures were “″+++″ (≥50% = +++)” and “″+″ (<20% = +)”.
For “199 (ALQDVPLSSV; listed as Homo sapiens) [compound 199]” the same measures were “″+++″ (≥50% = +++)” and “″+″ (<20% = +)”.
For “113 (GLLPTPLFGV; listed as Homo sapiens) [compound 113]” the same measures were “″+++″ (≥50% = +++)” and “″+″ (<20% = +)”.
With “662 (KIQEILTQV; listed as Homo sapiens) [compound 662]”, the wells result in assay [2] (HLA class I peptides) is given as “+ (<20% = +)”.
Consider “511 (FLDPYCSASV; listed as Homo sapiens) [compound 511]”, for which the Peptide exchange result in assay [1] is on record as “″++″ (≥20% = ++)”. The “Wells positive [%]” value in assay [2] is “″+″ (<20% = +)”.
On to “2 (SLLEADPFL; listed as Homo sapiens) [compound 2]”, for which the Peptide exchange entry in assay [1] is recorded as “″+++″ (≥50% = +++)”. Further, in assay [2], the “Wells positive [%]” value is recorded as “″+″ (<20% = +)”.
The corresponding values for “56 (KLYEGIPVLL; listed as Homo sapiens) [compound 56]” are “″++++″ (≥75% = ++++)” and “″+″ (<20% = +)”.
For the substance “384 (ILFANPNIFV; listed as Homo sapiens) [compound 384]”, the Peptide exchange entry in assay [1] is “″+++″ (≥50% = +++)”. Also, the “Wells positive [%]” value in assay [2] was “″+″ (<20% = +)”.
The corresponding values for “11 (KIFEMLEGV; listed as Homo sapiens) [compound 11]” are “″+++″ (≥50% = +++)” and “″+″ (<20% = +)”.
As for “489 (KMWEELPEVV; listed as Homo sapiens) [compound 489]”, in assay [1], the Peptide exchange result is listed as “″+++″ (≥50% = +++)”. The “Wells positive [%]” value in assay [2] is recorded as “″+″ (<20% = +)”.
With “663 (KIQEMQHFL; listed as Homo sapiens) [compound 663]”, the wells entry in assay [2] (HLA class I peptides) is listed as “+ (<20% = +)”.
With “118 (KLIDNNINV; listed as Homo sapiens) [compound 118]”, the Peptide exchange entry in assay [1] was “″+++″ (≥50% = +++)”. Besides, the “Wells positive [%]” value in assay [2] is listed as “″+″ (<20% = +)”.
As to “499 (KIFDIDEAEEGV; listed as Homo sapiens) [compound 499]”, in assay [1], the Peptide exchange entry was “″++″ (≥20% = ++)”. Besides, the “Wells positive [%]” value in assay [2] was “″+″ (<20% = +)”.
For “460 (AMLEKNYKL; listed as Homo sapiens) [compound 460]” the same measures were “″++++″ (≥75% = ++++)” and “″+″ (<20% = +)”.
The corresponding values for “150 (RLWEEGEELEL; listed as Homo sapiens) [compound 150]” are “″+++″ (≥50% = +++)” and “″+″ (<20% = +)”.
As for “3 (SLASKLTTL; listed as Homo sapiens) [compound 3]”, in assay [1], the Peptide exchange entry is “″++++″ (≥75% = ++++)”. In addition, the “Wells positive [%]” value in assay [2] was “″+″ (<20% = +)”.
For “60 (SLTIDGIYYV; listed as Homo sapiens) [compound 60]” the same measures were “″++++″ (≥75% = ++++)” and “″++++″ (> = 70% = ++++)”.
Regarding “141 (YLDFSNNRL; listed as Homo sapiens) [compound 141]”, the Peptide exchange entry in assay [1] is “″++″ (≥20% = ++)”. Moreover, in assay [2], the “Wells positive [%]” value is listed as “″+″ (<20% = +)”.
For the substance “603 (FLIEPEHVNTV; listed as Homo sapiens) [compound 603]”, the Peptide exchange entry in assay [1] is reported as “″++″ (≥20% = ++)”. In addition, the “Wells positive [%]” value in assay [2] is “″+″ (<20% = +)”.
For “659 (ILFPDIIARA; listed as Homo sapiens) [compound 659]”, the wells entry in assay [2] (HLA class I peptides) is “+ (<20% = +)”.
Take “652 (TLWYRAPEV; listed as Homo sapiens) [compound 652]”: the donors result in assay [2] (HLA class I peptides, positive donors) is recorded as “++++ (> = 70% = ++++)”.
Regarding “588 (SLLPLSHLV; listed as Homo sapiens) [compound 588]”, in assay [1], the Peptide exchange result was “″+++″ (≥50% = +++)”.
The same measure, in the same setting: the same measure for “75 (GLLEVMVNL; listed as Homo sapiens) [compound 75]”: “″+++″ (≥50% = +++)”; for “287 (FLNEFFLNV; listed as Homo sapiens) [compound 287]”: “″+++″ (≥50% = +++)”.
For the substance “591 (SMAELDIKL; listed as Homo sapiens) [compound 591]”, in assay [1], the Peptide exchange result is on record as “″+++″ (≥50% = +++)”.
Take “519 (GLLHLTLLL; listed as Homo sapiens) [compound 519]”: in assay [1], the Peptide exchange result was “″+++″ (≥50% = +++)”.
As to “274 (SLLFSLFEA; listed as Homo sapiens) [compound 274]”, the Peptide exchange entry in assay [1] is “″++″ (≥20% = ++)”.
As to “606 (ALWETEVYI; listed as Homo sapiens) [compound 606]”, in assay [1], the Peptide exchange entry is on record as “″+++″ (≥50% = +++)”.
On the same count and under the same terms, the same measure for “617 (ALMYESEKVGV; listed as Homo sapiens) [compound 617]”: “″+++″ (≥50% = +++)”; for “173 (LLDSASAGLYL; listed as Homo sapiens) [compound 173]”: “″+++″ (≥50% = +++)”; for “165 (SLLDEIRAV; listed as Homo sapiens) [compound 165]”: “″+++″ (≥50% = +++)”.
The same measure, in the same setting: to “144 (YIMEPSIFNTL; listed as Homo sapiens) [compound 144]” belongs “″+++″ (≥50% = +++)”; to “284 (ILLSQTTGV; listed as Homo sapiens) [compound 284]”, “″+++″ (≥50% = +++)”.
With “94 (YLIDIKTIAI; listed as Homo sapiens) [compound 94]”, the Peptide exchange entry in assay [1] is “″++″ (≥20% = ++)”.
For the substance “151 (KILQQLVTL; listed as Homo sapiens) [compound 151]”, the Peptide exchange result in assay [1] is “″+++″ (≥50% = +++)”.
In the case of “517 (LLMPIPEGLTL; listed as Homo sapiens) [compound 517]”, in assay [1], the Peptide exchange result is “″+++″ (≥50% = +++)”.
In the case of “599 (YLLNDASLISV; listed as Homo sapiens) [compound 599]”, in assay [1], the Peptide exchange entry is given as “″+++″ (≥50% = +++)”.
In the case of “335 (YSLSSVVTV; listed as Homo sapiens) [compound 335]”, the Peptide exchange entry in assay [1] was “″+++″ (≥50% = +++)”.
Same read-out and setting: the same measure for “465 (QLCDLNAEL; listed as Homo sapiens) [compound 465]”: “″+++″ (≥50% = +++)”; for “498 (KLWTGGLDNTV; listed as Homo sapiens) [compound 498]”: “″+++″ (≥50% = +++)”; for “298 (VMITKLVEV; listed as Homo sapiens) [compound 298]”: “″+++″ (≥50% = +++)”.
Take “29 (KMLGIPISNILMV; listed as Homo sapiens) [compound 29]”: in assay [1], the Peptide exchange entry is reported as “″+++″ (≥50% = +++)”.
The same measure, in the same setting: the same measure for “529 (LLADELITV; listed as Homo sapiens) [compound 529]”: “″+++″ (≥50% = +++)”.
